According to article PMC6821365:

Key:
Test in all cases: ITC
yedK E105A = target: T1, yedK E105A (Escherichia coli (gene from BL21 …, UniProt P76318 2-222, E105A))
T1 sequence: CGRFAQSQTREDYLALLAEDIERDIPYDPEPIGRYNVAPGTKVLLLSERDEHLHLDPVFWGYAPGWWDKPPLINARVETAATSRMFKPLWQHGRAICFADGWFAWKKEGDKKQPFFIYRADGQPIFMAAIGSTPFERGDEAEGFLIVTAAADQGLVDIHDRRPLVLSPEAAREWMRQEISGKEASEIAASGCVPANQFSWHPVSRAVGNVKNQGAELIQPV

yedK T80A = target: T2, yedK T80A (Escherichia coli (gene from BL21 …, UniProt P76318 2-222, T80A))
T2 sequence: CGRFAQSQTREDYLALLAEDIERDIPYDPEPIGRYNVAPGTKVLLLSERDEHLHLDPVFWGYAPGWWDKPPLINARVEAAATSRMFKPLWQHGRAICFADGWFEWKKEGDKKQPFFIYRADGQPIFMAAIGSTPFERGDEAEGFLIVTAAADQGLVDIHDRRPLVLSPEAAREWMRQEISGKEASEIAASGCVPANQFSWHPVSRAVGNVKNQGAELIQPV

yedK R77A = target: T3, yedK R77A (Escherichia coli (gene from BL21 …, UniProt P76318 2-222, R77A))
T3 sequence: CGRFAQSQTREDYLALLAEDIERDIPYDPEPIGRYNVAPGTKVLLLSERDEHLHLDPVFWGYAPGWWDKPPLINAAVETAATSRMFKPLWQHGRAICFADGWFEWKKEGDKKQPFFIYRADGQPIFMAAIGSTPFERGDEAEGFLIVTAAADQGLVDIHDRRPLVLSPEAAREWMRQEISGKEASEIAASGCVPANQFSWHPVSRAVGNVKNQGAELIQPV

yedK P40G = target: T4, yedK P40G (Escherichia coli (gene from BL21 …, UniProt P76318 2-222, P40G))
T4 sequence: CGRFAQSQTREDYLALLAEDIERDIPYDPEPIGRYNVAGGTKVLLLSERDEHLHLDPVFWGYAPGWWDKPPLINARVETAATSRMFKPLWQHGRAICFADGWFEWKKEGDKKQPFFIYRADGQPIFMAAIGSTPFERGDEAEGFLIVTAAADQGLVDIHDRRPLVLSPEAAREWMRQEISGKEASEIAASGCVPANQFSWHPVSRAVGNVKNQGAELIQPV

yedK N75A = target: T5, yedK N75A (Escherichia coli (gene from BL21 …, UniProt P76318 2-222, N75A))
T5 sequence: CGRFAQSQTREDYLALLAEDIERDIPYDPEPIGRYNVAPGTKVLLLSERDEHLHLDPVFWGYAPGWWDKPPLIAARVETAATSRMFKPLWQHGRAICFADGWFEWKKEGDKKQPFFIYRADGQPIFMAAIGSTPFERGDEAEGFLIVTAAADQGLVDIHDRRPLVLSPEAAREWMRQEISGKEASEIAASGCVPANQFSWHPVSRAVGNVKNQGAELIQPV

yedK R85A = target: T6, yedK R85A (Escherichia coli (gene from BL21 …, UniProt P76318 2-222, R85A))
T6 sequence: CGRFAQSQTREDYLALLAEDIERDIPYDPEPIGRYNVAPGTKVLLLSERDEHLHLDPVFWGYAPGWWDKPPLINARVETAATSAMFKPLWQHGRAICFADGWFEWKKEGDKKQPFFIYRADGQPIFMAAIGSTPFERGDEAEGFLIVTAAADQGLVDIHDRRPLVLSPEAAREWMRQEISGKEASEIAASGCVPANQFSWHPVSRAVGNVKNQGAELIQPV

yedK K70A = target: T7, yedK K70A (Escherichia coli (gene from BL21 …, UniProt P76318 2-222, K70A))
T7 sequence: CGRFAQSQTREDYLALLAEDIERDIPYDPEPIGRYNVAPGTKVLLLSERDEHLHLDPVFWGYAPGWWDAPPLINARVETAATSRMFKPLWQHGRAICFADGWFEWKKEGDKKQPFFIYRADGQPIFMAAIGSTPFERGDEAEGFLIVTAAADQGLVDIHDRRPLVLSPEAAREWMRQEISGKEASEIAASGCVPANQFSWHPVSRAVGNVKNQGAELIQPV

yedK R4A = target: T8, yedK R4A (Escherichia coli (gene from BL21 …, UniProt P76318 2-222, R4A))
T8 sequence: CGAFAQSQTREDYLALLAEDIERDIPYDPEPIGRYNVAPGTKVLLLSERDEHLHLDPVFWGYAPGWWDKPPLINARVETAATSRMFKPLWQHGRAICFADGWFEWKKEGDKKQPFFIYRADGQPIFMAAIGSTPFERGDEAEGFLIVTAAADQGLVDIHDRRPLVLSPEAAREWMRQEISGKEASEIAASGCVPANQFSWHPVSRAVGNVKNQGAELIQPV

B1: ssDNA (ssDNA)
DNA: CGGTCGATTC
Kd (yedK E105A): 0.12 µM | Kd (yedK T80A): 12.6 µM | binding result (yedK R77A): no binding | Kd (yedK P40G): 10.8 µM | Kd (yedK N75A): 37.9 µM | Kd (yedK R85A): 16.9 µM | Kd (yedK K70A): 4 µM | Kd (yedK R4A): 34.6 µM
